Measurements taken from patent publication US6287561.

Target: gp120 of HIV-1 RF strain (HIV-1 RF strain) (UniProt P04579)

In the case of LMW-UK (from UniProt P00749), the p24 antigen level in H9 cell supernatants, percent of control is reported as 4 % of control.
